For assay [1], the target named is T1, Cry3Bb toxin (Bacillus thuringiensis, UniProt Q06117 64-652). Description: cell-based or functional assay.
For assay [2], the target named is T1, Cry3Bb toxin. The assay can be described thus: ELISA, biotinylated peptide titrated on plate-coated activated Cry3Bb; one-site saturation binding fit of specific binding. (In general: In an ELISA, binding on a coated surface is turned into a signal by an enzyme label.)

T1 sequence (Q06117 64-652 limits assumed): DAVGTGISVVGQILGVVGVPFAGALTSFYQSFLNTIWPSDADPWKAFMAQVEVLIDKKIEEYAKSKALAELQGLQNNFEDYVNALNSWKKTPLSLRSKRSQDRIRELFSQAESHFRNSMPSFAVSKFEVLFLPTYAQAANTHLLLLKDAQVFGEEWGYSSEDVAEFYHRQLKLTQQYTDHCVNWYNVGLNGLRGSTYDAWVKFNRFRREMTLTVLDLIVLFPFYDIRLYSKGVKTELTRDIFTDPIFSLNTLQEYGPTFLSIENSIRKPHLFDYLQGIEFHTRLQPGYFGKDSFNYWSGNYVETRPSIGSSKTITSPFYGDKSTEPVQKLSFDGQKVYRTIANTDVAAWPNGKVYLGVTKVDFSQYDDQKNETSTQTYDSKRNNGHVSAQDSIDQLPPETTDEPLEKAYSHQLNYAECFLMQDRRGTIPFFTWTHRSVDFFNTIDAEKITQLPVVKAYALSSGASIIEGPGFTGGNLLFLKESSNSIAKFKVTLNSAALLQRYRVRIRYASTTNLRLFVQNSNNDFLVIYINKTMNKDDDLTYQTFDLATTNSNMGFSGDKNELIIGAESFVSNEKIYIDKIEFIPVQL

B1: AdCad1-CR9 peptide (peptide)
chain: TEMIYKLTVEASIKEQTQINGKPTFARCEFNVGFFDKDNTDPIFKNKHEDTHEMAEEDDTLFYVLIENATYAKEDVPDDLSTFYLLAEGERDIFDVDKFTGKVTLNKPLDYETKKSHSLTIQSSNSDKLKLNASEETKLHLTIIVTDINDHAPVM
modifications: biotinylated with sulfo-NHS-photocleavable biotin (50-fold molar excess) in the binding assay
notes: Expressed in E. coli from pET-30a (Nde I / Xho I), purified from inclusion bodies on a Ni-chelating column; In the bioassays it was used unlabelled, as inclusion bodies; also called biotinylated-AdCad1-CR9; not shown: C-terminal His-tag from the pET-30a vector
Consider B1, for which the “larval mortality with Cry3Bb (10 ug/cm^2) plus peptide at a 1:10 mass ratio, against 10% with toxin alone” value with Cry3Bb toxin [1] was above 25%. Further, the affinity with Cry3Bb toxin [2], expressed as Kd, was 23.2 nM.

B2: AdCad1-MPED peptide (peptide)
chain: DSDSYITVLPLVDAVSTAKLVTIHATDPDDTSEVQYQIESCIGSGDLLQKLCGNNPFEINKISGEISAQIQSANLSKWDGHFNLTVTAADEAGFDDKNHTDEAVVTLYLVTKLHLVAFDFENSLEQVQNKSNEIKTILDEQFAETSDGGTPYVATVQGANAKSDEITTATVYFLNLKQQKPVNKDNIYSYCTNTQYFGSMRSAFLAEGLSLMSFDGTSNETEDMEEILT
modifications: biotinylated with sulfo-NHS-photocleavable biotin (50-fold molar excess) in the binding assay
notes: Expressed in E. coli from pET-30a (Nde I / Xho I), purified from inclusion bodies on a Ni-chelating column; In the bioassays it was used unlabelled, as inclusion bodies; also called biotinylated-AdCad1-MPED; not shown: C-terminal His-tag from the pET-30a vector
For the molecule B2, the “larval mortality with Cry3Bb (10 ug/cm^2) plus peptide at a 1:10 mass ratio, against 10% with toxin alone” value with Cry3Bb toxin [1] is above 25%. Further, the Kd with Cry3Bb toxin [2] stood at 40.6 nM.

For orientation: Kd means the concentration at which binding is half-saturated. High values mean a looser complex, low ones a tighter complex.

The values above are taken from patent US10787678 (UNIVERSITY OF GEORGIA RESEARCH FOUNDATION, dated 2020).
